Experiment [1] concerns the target p53 wt(245-254) peptide … with HLA-A2 and b2M on peptide-pulsed T2 cells (human). Kind of experiment: flow cytometry, phage-displayed scFv on peptide-pulsed T2 cells (FIG. 4). Background: In flow cytometry, cells or beads pass a laser one at a time.
Method: (§1) Cells were stained with 10 μL of precipitated phage per 100 μL of cells, washed and stained with rabbit anti-M13 antibody, then washed and stained with anti-Rabbit-PE antibody. Cells were stained with a live/dead Near-IR dye, washed, and analyzed by an LSRII flow cytometer.
(§2) The pulsed cells were pelleted, washed once in cold stain buffer (PBS containing 0.5% BSA, 2 mM EDTA, and 0.1% sodium azide), and resuspended in 100 μL of stain buffer. Phage staining was performed on ice with 10 uL (approximately 1×10⁹) phage for 1 hour in 100 uL total volume, followed by one 4 mL wash in cold stain buffer. Cells were then stained with 1 uL of rabbit anti-M13 antibody (Pierce, Rockford, Ill.) in 100 uL total volume on ice for 1 hour and washed once with 4 mL of cold stain buffer. Cells were stained with anti-rabbit-PE (Biolegend) on ice for 1 hour in 100 uL total volume, followed by incubation with LIVE/DEAD Fixable Near-IR Dead Cell Stain (Thermo Fisher) for 10 min at room temperature per manufacturer's instructions. Cells were washed once in 4 mL of stain buffer followed by resuspension in 300 uL of stain buffer before analysis. Stained cells were analyzed using an LSRII flow cytometer (Becton Dickinson, Mansfield, Mass.).
For experiment [2], the target named is KRAS wt(7-16) peptide … with HLA-A11 and b2M on peptide-pulsed Hs611.T cells (human). In words: flow cytometry, phage-displayed scFv on peptide-pulsed Hs611.T cells (FIG. 11).
Method: as §1, §2
In experiment [3] the target is T1, IDH2 wt peptide (…) HLA-B7 biotinylated monomer (biotinylated (site not given)).
T1 construct: also called wt version of the peptide of interest in complex with the same HLA allele
In words: phage ELISA on monomer-coated streptavidin plate (FIG. 1).

Experiment [4] has as its target control 3 peptide (…, a different peptide from wt IDH2) HLA-B7 biotinylated monomer (biotinylated (site not given)). Described as above.
The target of experiment [5] is control 1 peptide (…, artificial sequence) HLA-B7 biotinylated monomer (biotinylated (site not given)). The description is as above.
Experiment [6] concerns the target T2, IDH2 wt(134-143) peptide … with HLA-B7 and b2M on cells (human).
T2 construct: peptide-pulsed RPMI-6666 cells in flow cytometry
Kind of experiment: flow cytometry, phage-displayed scFv on peptide-pulsed RPMI-6666 cells (FIG. 3).
Method: as §1, §2

B1: p53_R248Q_A2_c14 (scFv)
scFv: DIQMTQSPSSLSASVGDRVTITCRASQDVNTAVAWYQQKPGKAPKLLIYSASFLYSGVPSRFSGSRSGTDFTLTISSLQPEDFATYYCQQSLYGPFTFGQGTKVEIKRTGGGSGGGGSGGGASEVQLVESGGGLVQPGGSLRLSCAASGFNIAYEYMHWVRQAPGKGLEWVALIGPDSGYTYYADSVKGRFTISADTSKNTAYLQMNSLRAEDTAVYYCSRVWYYSTYGMDYWGQGTLVTVSS
As to B1, the binding result in experiment [1] is “no binding”.

B2: KRAS_G12V_A11_V3 (scFv)
scFv: DIQMTQSPSSLSASVGDRVTITCRASQDVNTAVAWYQQKPGKAPKLLIYSASFLYSGVPSRFSGSRSGTDFTLTISSLQPEDFATYYCQQSSYTPITFGQGTKVEIKRTGGGSGGGGSGGGASEVQLVESGGGLVQPGGSLRLSCAASGFNISQGGIHWVRQAPGKGLEWVAYVYPGGGQTNYADSVKGRFTISADTSKNTAYLQMNSLRAEDTAVYYCSRGYDYSAFDYWGQGTLVTVSS
In the case of B2, the binding result in experiment [2] is “no binding”.

B3: IDH2_R140Q_B7_c11 (scFv)
scFv: DIQMTQSPSSLSASVGDRVTITCRASQDVNTAVAWYQQKPGKAPKLLIYSASFLYSGVPSRFSGSRSGTDFTLTISSLQPEDFATYYCQQVYSSPFTFGQGTKVEIKRTGGGSGGGGSGGGASEVQLVESGGGLVQPGGSLRLSCAASGFNVKYYMMHWVRQAPGKGLEWVAAISPGYDYTYYADSVKGRFTISADTSKNTAYLQMNSLRAEDTAVYYCSRSYWRYSVDVWGQGTLVTVSS
notes: also called IDH2 R140Q(134-143)-B7 c1.1
With B3, the binding result in experiment [3], in experiment [4], in experiment [5] and in experiment [6] was “no binding” in each case.

B4: IDH2_R140Q_B7_c13 (scFv)
scFv: DIQMTQSPSSLSASVGDRVTITCRASQDVNTAVAWYQQKPGKAPKLLIYSASFLYSGVPSRFSGSRSGTDFTLTISSLQPEDFATYYCQQYSLYSPMTFGQGTKVEIKRTGGGSGGGGSGGGASEVQLVESGGGLVQPGGSLRLSCAASGFNSFLSIHWVRQAPGKGLEWVAHIFPSSDYTSYADSVKGRFTISADTSKNTAYLQMNSLRAEDTAVYYCSRGKHSSDSNYYMDYWGQGTLVTVSS
notes: also called IDH2 R140Q(134-143)-B7 c1.3
Consider B4, for which the binding result in experiment [3], in experiment [4], in experiment [5] and in experiment [6] was “no binding” throughout.

B5: p53_R248W_A2_c18 (scFv)
scFv: DIQMTQSPSSLSASVGDRVTITCRASQDVNTAVAWYQQKPGKAPKLLIYSASFLYSGVPSRFSGSRSGTDFTLTISSLQPEDFATYYCQQYSYSPITFGQGTKVEIKRTGGGSGGGGSGGGASEVQLVESGGGLVQPGGSLRLSCAASGFNLFGYGMHWVRQAPGKGLEWVAEIGPYYYYTSYADSVKGRFTISADTSKNTAYLQMNSLRAEDTAVYYCSRENYDMAMDYWGQGTLVTVSS
As to B5, the binding result in experiment [1] is given as “no binding”.

B6: KRAS_G12V_A11_V23 (scFv)
scFv: DIQMTQSPSSLSASVGDRVTITCRASQDVNTAVAWYQQKPGKAPKLLIYSASFLYSGVPSRFSGSRSGTDFTLTISSLQPEDFATYYCQQYSYYPITFGQGTKVEIKRTGGGSGGGGSGGGASEVQLVESGGGLVQPGGSLRLSCAASGFNLSTHVMHWVRQAPGKGLEWVAEFYPYVGYTYYADSVKGRFTISADTSKNTAYLQMNSLRAEDTAVYYCSRGYRYQYMDVWGQGTLVTVSS
B6: the binding result in experiment [2] is “no binding”.

B7: p53_R248QW_A2_c117 (scFv)
scFv: DIQMTQSPSSLSASVGDRVTITCRASQDVNTAVAWYQQKPGKAPKLLIYSASFLYSGVPSRFSGSRSGTDFTLTISSLQPEDFATYYCQQGLYYPWTFGQGTKVEIKRTGGGSGGGGSGGGASEVQLVESGGGLVQPGGSLRLSCAASGFNVSYSSIHWVRQAPGKGLEWVAEIWPDSGQTWYADSVKGRFTISADTSKNTAYLQMNSLRAEDTAVYYCSRSSYFDAMDYWGQGTLVTVSS
Consider B7, for which, in experiment [1], the binding result is recorded as “no binding”.

B8: KRAS_G12V_A11_V21 (scFv)
scFv: DIQMTQSPSSLSASVGDRVTITCRASQDVNTAVAWYQQKPGKAPKLLIYSASFLYSGVPSRFSGSRSGTDFTLTISSLQPEDFATYYCQQYTYYPITFGQGTKVEIKRTGGGSGGGGSGGGASEVQLVESGGGLVQPGGSLRLSCAASGFNLHGYLMHWVRQAPGKGLEWVAFIYPPNGYTYYADSVKGRFTISADTSKNTAYLQMNSLRAEDTAVYYCSRGVDYAYLDYWGQGTLVTVSS
As to B8, the binding result in experiment [2] was “no binding”.

B9: p53_R248Q_A2_c10 (scFv)
scFv: DIQMTQSPSSLSASVGDRVTITCRASQDVNTAVAWYQQKPGKAPKLLIYSASFLYSGVPSRFSGSRSGTDFTLTISSLQPEDFATYYCQQSGYAPITFGQGTKVEIKRTGGGSGGGGSGGGASEVQLVESGGGLVQPGGSLRLSCAASGFNISYYSMHWVRQAPGKGLEWVADVDPDSDYTEYADSVKGRFTISADTSKNTAYLQMNSLRAEDTAVYYCSRSWIHMFSMDYWGQGTLVTVSS
As to B9, the binding result in experiment [1] is “no binding”.

B10: p53_R248W_A2_c12 (scFv)
scFv: DIQMTQSPSSLSASVGDRVTITCRASQDVNTAVAWYQQKPGKAPKLLIYSASFLYSGVPSRFSGSRSGTDFTLTISSLQPEDFATYYCQQYSYAPITFGQGTKVEIKRTGGGSGGGGSGGGASEVQLVESGGGLVQPGGSLRLSCAASGFNIGYYTMHWVRQAPGKGLEWVAEVSPWSYSTSYADSVKGRFTISADTSKNTAYLQMNSLRAEDTAVYYCSRDHWDEAFDVWGQGTLVTVSS
B10: in experiment [1], the binding result is reported as “no binding”.

B11: p53_R248QW_A2_c114 (scFv)
scFv: DIQMTQSPSSLSASVGDRVTITCRASQDVNTAVAWYQQKPGKAPKLLIYSASFLYSGVPSRFSGSRSGTDFTLTISSLQPEDFATYYCQQYLYQPWTFGQGTKVEIKRTGGGSGGGGSGGGASEVQLVESGGGLVQPGGSLRLSCAASGFNIDYYGMHWVRQAPGKGLEWVASLYGGSDSTDYADSVKGRFTISADTSKNTAYLQMNSLRAEDTAVYYCSRQYSAYFDYWGQGTLVTVSS
B11: the binding result in experiment [1] was “no binding”.

B12: KRAS_G12_VA11_V9 (scFv)
scFv: DIQMTQSPSSLSASVGDRVTITCRASQDVNTAVAWYQQKPGKAPKLLIYSASFLYSGVPSRFSGSRSGTDFTLTISSLQPEDFATYYCQQYAYYPITFGQGTKVEIKRTGGGSGGGGSGGGASEVQLVESGGGLVQPGGSLRLSCAASGFNISSTGMHWVRQAPGKGLEWVAELLGGSGNTNYADSVKGRFTISADTSKNTAYLQMNSLRAEDTAVYYCSRGLQYSAMDYWGQGTLVTVSS
As to B12, the binding result in experiment [2] was “no binding”.

B13: IDH2_R140Q_B7_c129 (scFv)
scFv: DIQMTQSPSSLSASVGDRVTITCRASQDVNTAVAWYQQKPGKAPKLLIYSASFLYSGVPSRFSGSRSGTDFTLTISSLQPEDFATYYCQQGKAYWPATFGQGTKVEIKRTGGGSGGGGSGGGASEVQLVESGGGLVQPGGSLRLSCAASGFNVGHYRMHWVRQAPGKGLEWVAMVSPNGYYTYYADSVKGRFTISADTSKNTAYLQMNSLRAEDTAVYYCSRGYSSYAFDYWGQGTLVTVSS
notes: also called IDH2 R140Q(134-143)-B7 c1.29
For B13, the binding result in experiment [3], in experiment [4], in experiment [5] and in experiment [6] was “no binding” throughout.

B14: KRAS_G12V_A11V10 (scFv)
scFv: DIQMTQSPSSLSASVGDRVTITCRASQDVNTAVAWYQQKPGKAPKLLIYSASFLYSGVPSRFSGSRSGTDFTLTISSLQPEDFATYYCQQYEYYPITFGQGTKVEIKRTGGGSGGGGSGGGASEVQLVESGGGLVQPGGSLRLSCAASGFNFFSTVIHWVRQAPGKGLEWVAEIYPWSGSTYYADSVKGRFTISADTSKNTAYLQMNSLRAEDTAVYYCSRSRSSNYYFDVWGQGTLVTVSS
On to B14, for which the binding result in experiment [2] is given as “no binding”.

B15: KRAS_G12V_A11_V24 (scFv)
scFv: DIQMTQSPSSLSASVGDRVTITCRASQDVNTAVAWYQQKPGKAPKLLIYSASFLYSGVPSRFSGSRSGTDFTLTISSLQPEDFATYYCQQSSVEPWTFGQGTKVEIKRTGGGSGGGGSGGGASEVQLVESGGGLVQPGGSLRLSCAASGFNVSYYSIHWVRQAPGKGLEWVAYIYPWNDYTYYADSVKGRFTISADTSKNTAYLQMNSLRAEDTAVYYCSRGSYYSFDYWGQGTLVTVSS
Take B15: the binding result in experiment [2] was “no binding”.

B16: p53_R248W_A2_c111 (scFv)
scFv: DIQMTQSPSSLSASVGDRVTITCRASQDVNTAVAWYQQKPGKAPKLLIYSASFLYSGVPSRFSGSRSGTDFTLTISSLQPEDFATYYCQQSGYQPDTFGQGTKVEIKRTGGGSGGGGSGGGASEVQLVESGGGLVQPGGSLRLSCAASGFNISWYAMHWVRQAPGKGLEWVAEIWPDSDWTYYADSVKGRFTISADTSKNTAYLQMNSLRAEDTAVYYCSRYYYSSAFDVWGQGTLVTVSS
As to B16, the binding result in experiment [1] is listed as “no binding”.

B17: IDH2_R140Q_B7_D4 (scFv)
scFv: DIQMTQSPSSLSASVGDRVTITCRASQDVNTAVAWYQQKPGKAPKLLIYSASFLYSGVPSRFSGSRSGTDFTLTISSLQPEDFATYYCQQYSYSPPTFGQGTKVEIKRTGGGSGGGGSGGGASEVQLVESGGGLVQPGGSLRLSCAASGFNISDTYIHWVRQAPGKGLEWVASISPRTGYNRYADSVKGRFTISADTSKNTAYLQMNSLRAEDTAVYYCSRAYYSYAYAMDVWGQGTLVTVSS
With B17, the binding result in experiment [3], in experiment [4], in experiment [5] and in experiment [6] was “no binding” throughout.
